Source: the supplement of paper PMC10266784

B1: library; numbered along this chain (parent)
chain: MAAAAAAAAEQQSSNGPVKKSMREKAVERRSVNKEHNSNFKAGYIPIDEDRLHKTGLRGRKGNLAICVIILLFILAVINLIITLVIWAVIRIGPNGCDSMEFHESGLLRFKQVSDMGVIHPLYKSTVGGRRNENLVITGNNQPIVFQQGTTKLSVENNKTSITSDIGMQFFDPRTQNILFSTDYETHEFHLPSGVKSLNVQKASTERITSNATSDLNIKVDGRAIVRGNEGVFIMGKTIEFHMGGNMELKAENSIILNGSVMVSTTRLPSSSSGDQLGSGDWVRYKLCMCADGTLFKVQVTSQNMGCQISDNPCGNTH

Variants of: B1
Test: SGCB cell-surface expression functional score (HA stain, bin4 vs bin1, normalised to synonymous) (log10 ratio); higher = more cell-surface SGCB (functional)
In short: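 Codon-saturation libraries of HA-tagged, YFP-fused human beta-sarcoglycan were lentivirally transduced at MOI <0.1 into HEK293 cells stably expressing alpha-, gamma- and delta-sarcoglycan. YFP-positive cells were sorted after 72 hours, grown 5–7 days, stained on ice with Alexa Fluor 647 anti-HA, fixed, sorted into four 5% intensity bins and amplicon-sequenced. The functional score is the log ratio of highest-bin to lowest-bin variant frequency, taken as the median over codons and duplicate transductions. Synonymous variants were scaled per section to mean 0, SD 0.5.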

SGCB cell-surface expression functional score (log10) of substitutions, site by site:
R227: M 1.08; K 1.05; P -1.23; D 0.42; C 0.03; N -0.13; V 0.81; S 0.71; E 1.04; H 0.55; Q 0.55; G 0.48; W 0.59; T 0.88; Y 0.15; F -0.49; I -0.01; L 0.68; A 0.72
K219: W -0.31; H 0.53; Q 0.3; G -0.33; T 0.6; I 0.23; A 0.76; P -0.21; S 0.32; V -0.18; L 0.3; F 0.64; Y -0.13; D 0.29; M 0.67; R 0.05; E -0.03; N -0.17; C 0.59
V232: E -1.63; Y -1.09; W -1.85; F 0.02; D -1.72; R -1.12; S -0.67; A -0.53; K -1.43; M 0.68; G -0.27; C 0.7; P -0.64; H 0.69; T 0; N -1.99; Q -1.69; I 0.47; L 0.35
A224: P -1.81; Y -0.45; K -2.05; L 1.04; S 0.3; E -1.01; I 1; D -0.97; M 0.59; H -0.71; N -0.26; Q -0.44; R -1.54; G -0.16; W -1.5; C 0.31; V 0.53; F 0.35; T 0.39
V226: L 0.56; S 0.01; H -1.36; D -1.82; K -1.06; I 0.04; N -0.64; C 0.33; F 0.29; G -0.26; T 0.44; Y -0.87; E 0.47; R -1.54; A 0.3; P -0.81; M 0.21; Q -0.68; W -1.37
I225: F 0.71; T 0.51; D 0.7; P -1.25; S 0.63; N 0.09; R 0.53; V 0.48; G 0.01; W 0.02; K 0.58; A 0.41; C 0.31; E 1.24; L 0.83; Y 1.24; Q 0.49; M 0.37; H 0.53
M235: T 0.37; C 0.86; Q 0.65; K 0.78; S 0.53; I 0.26; R 0.56; D -0.066; E 0; L 0.66; F 0.84; P -0.94; H 0.69; A 0.36; N 1.02; G 0.75
F233: M 1.15; C -0.13; D -0.146; R 0.69; A 0.97; K 0.34; W 0.09; I 0.99; T 0.7; E 0.63; S 0.62; V 0.18; G -0.1; Y 0.56; H 0.36; L 0.47; N 0.87; P -1.53; Q 0.77
R223: I 0.02; C 0.4; T 0.4; K 0.86; E 0.43; Y 0.77; W 0; D 0.48; L 0.34; N 0.66; A 0.72; F -0.62; G 0.12; H 0.2; S 0.18; V -0.13; P 0.58; Q 0.48; M 0.82
G222: M 0.55; R -0.06; H 1.21; V -0.07; F 0.36; E 0.65; T 0.6; N 1.22; K 0.81; S 0.06; C 0.58; Q 0.85; P -1.42; A 0.63; Y 0.21; I -0.41; L 0.26; W 0.49; D -0.04
G228: W -1.51; H -1.79; Q -1.35; D -1.5; F -0.64; T -0.37; M -0.15; Y -2.12; S 0.43; P -1.47; C 0.31; N -0.63; E -0.84; A 0.3; R -0.47; I -1.44; V -1.04; L -1.15; K -1.33
I234: Y -0.62; H -1.04; S -0.92; D -0.5; M 0.48; T 0.09; W 0.32; V 0.49; G -1; L 0.43; C 0.01; N -1.67; F 1.03; A -0.02; E -1.49; R -1.51; P -0.22; K -1.32; Q -1.65
N229: I 0.92; E 0.51; Q 0.93; P 0.68; H 1.03; L 0.33; M 1.28; W 0; R 0.82; V 0.87; K 0.95; S 0.94; G 0.8; A 0.8; Y -0.25; C 0.72; F 1.19; D 0.08; T 0.29
I218: W -0.149; H -2.33; Y -1.39; R -1.49; Q -2.02; P -0.63; V 0.46; N -1.03; K -1.78; T -0.49; G -1.15; L 0.56; M 0.26; S -1.26
D221: M 0.53; T 0.96; W 0.8; L 0.62; R 0.19; C -0.33; F 1; S 0.59; A 0.18; Y 0.42; E 0.01; G 0.35; H 0.75; N -0.22; P 0.1; K 0.13; I 0.45; V 0.59; Q 0.74
G231: K -1.12; S -0.88; T -0.29; V -1.02; H -0.09; A -0.01; C -0.5; L -0.37; M -1.23; W -1.9; E 0.17; F -0.12; N -0.19; Q -0.92; Y 0.68; D -0.08; R 0.27; P -1.37; I -1.29
E230: D 0.26; R 0.28; K 0.42; V 0.49; W 0.47; M 0.53; N 0.82; H 0.9; Q 0.32; Y 0.86; P -0.01; F 1.05; C 1.05; T 1.29; S 0.75; I 0.14; A 0.38; G 0.43; L 0.63
V220: I 0.43; A 0.7; K -0.09; R -1.12; N 0.09; F -0.09; M 0.77; T 0.63; S 0.45; C 0.09; D -0.38; L 0.84; Q -0.31; Y -0.43; G 0.34; P 0.3; W -1.67; H 0.43; E -0.86
